Patent US20250043002A1 (Regeneron, published 2025)

Experiments:
[1] = molecular target: T1, human CD28 on cells (endogenous on Jurkat/NFkB-Luc cells; human primary CD4+ T cells) (human, UniProt P10747 19-220); assay: cell-based or functional assay
[2] = molecular target: T1, human CD28 on cells (endogenous on …); assay: cell-based or functional assay; remark: listed apart in the source
[3] = molecular target: human CD28 expressed with a C-terminal murine Fc tag (hCD28.mFc) (human); assay: SPR Biacore 25 C, hCD28.mFc captured by anti-mFc, antibody injected
[4] = molecular target: T1, human CD28 on cells (endogenous on …); assay: flow cytometry, Jurkat/NFkB-Luc cells (endogenous CD28); EC50 NC
[5] = molecular target: human PD-L1 expressed with a C-terminal myc-myc-hexahistidine tag (hPD-L1.mmH) (human); assay: SPR Biacore 25 C, antibody captured by anti-hFc, hPD-L1.mmH injected
human PD-L1 expressed with a C-terminal myc-myc-hexahistidine tag (hPD-L1.mmH) (human), sequence (chain, as listed by the source limits assumed): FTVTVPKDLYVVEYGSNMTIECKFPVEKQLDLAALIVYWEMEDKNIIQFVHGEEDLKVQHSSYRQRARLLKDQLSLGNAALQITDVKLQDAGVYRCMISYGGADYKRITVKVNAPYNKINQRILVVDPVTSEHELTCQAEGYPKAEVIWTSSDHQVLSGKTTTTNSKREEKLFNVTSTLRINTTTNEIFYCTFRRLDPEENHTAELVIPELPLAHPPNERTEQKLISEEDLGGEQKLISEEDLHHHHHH

[6] = molecular target: T2, hPD-L1-mFc: hPD-L1 extracellular domain (amino acids F19-T239) expressed with the Fc portion of mouse IgG2a … (human; mouse, UniProt Q9NZQ7 19-239); assay: blocking ELISA, 0.7 nM hPD-L1-mFc on plate-coated hPD1-hFc
T2 construct: range 19-239; not shown: Fc portion of mouse IgG2a, amino acids E98-K330
T2 sequence (Q9NZQ7 19-239 limits assumed): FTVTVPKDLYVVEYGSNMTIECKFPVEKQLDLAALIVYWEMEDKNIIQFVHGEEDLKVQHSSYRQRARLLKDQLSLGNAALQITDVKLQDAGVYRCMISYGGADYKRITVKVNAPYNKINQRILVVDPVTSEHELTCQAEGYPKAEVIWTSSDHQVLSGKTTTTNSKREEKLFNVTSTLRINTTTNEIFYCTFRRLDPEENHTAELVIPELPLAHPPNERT

[7] = molecular target: T3, human PD-L1 expressed on cells (HEK293/hCD20/hPSMA/hPD-L1; WSU-DLCL2/hPD-L1) (human, UniProt Q9NZQ7 19-290); assay: flow cytometry, HEK293/hCD20/hPSMA/hPD-L1 cells
T3 construct: whole, on cells; also called human programmed death ligand-1
T3 sequence (Q9NZQ7 19-290): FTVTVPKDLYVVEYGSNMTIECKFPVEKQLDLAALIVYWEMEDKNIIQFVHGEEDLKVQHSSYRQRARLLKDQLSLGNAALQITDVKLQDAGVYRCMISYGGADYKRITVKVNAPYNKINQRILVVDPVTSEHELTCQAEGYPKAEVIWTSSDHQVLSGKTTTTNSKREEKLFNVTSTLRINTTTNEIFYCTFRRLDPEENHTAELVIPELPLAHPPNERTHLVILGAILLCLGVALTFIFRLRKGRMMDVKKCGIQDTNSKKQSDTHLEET

[8] = molecular target: T3, human PD-L1 expressed on cells …; assay: cell-based or functional assay
[9] = molecular target: T1, human CD28 on cells (endogenous on …); assay: flow cytometry, Jurkat/NFkB-Luc cells (endogenous CD28)

IL2 release MAX (RLU), CD4+ T cells + HEK293/hCD20/hPSMA [1]	IL2 release MAX (RLU), CD4+ T cells + HEK293/hCD20/hPSMA + CD20×CD3 [1]	IL2 release MAX (RLU), CD4+ T cells + HEK293/hCD20/hPSMA/hPD-L1 [1]	IL2 release MAX (RLU), CD4+ T cells + HEK293/hCD20/hPSMA/hPD-L1 + CD20×CD3 [1]	NFkB-luciferase MAX (RLU), Jurkat/NFkB-Luc + HEK293/hCD20/hPSMA [2]	NFkB-luciferase MAX (RLU), Jurkat/NFkB-Luc + HEK293/hCD20/hPSMA + CD20×CD3 [2]	NFkB-luciferase MAX (RLU), Jurkat/NFkB-Luc + HEK293/hCD20/hPSMA/hPD-L1 [2]	NFkB-luciferase MAX (RLU), Jurkat/NFkB-Luc + HEK293/hCD20/hPSMA/hPD-L1 + CD20×CD3 [2]	90 nM mAb Bind (RU) [3]	30 nM hPD-L1.mmH Bind (RU) [5]	Kd [5]	koff [5]	kon [5]	t1/2 [5]	% Blocking at 100 nM mAb [6]	IC50 [6]	EC50 [7]	Fold Change (max MFI over secondary antibody alone) [7]	Max gMFI [7]	AP-1 luciferase EC50, WSU-DLCL2/hPD-L1 + Jurkat/AP1-Luc/hPD1 [8]	Binder	also measured
4530 RLU	9080 RLU	3640 RLU	6960 RLU	11000 RLU	181000 RLU	11100 RLU	155000 RLU	-1.3 RU												mAb9373 (antibody, V domains shown, Bivalent parental antibody; also called parental bivalent anti-PD-L1 antibody; PD-L1 bivalent control antibody) VH: QVQLVQSGTEVKKPGASVKVSCKASGYTFTAYYMHWVRQAPGQGLDWMGWISPNSGFTNYAQKFQGRVTMTRDTSINTFYMELSGLRSDDTAVYYCAREGSTHHNSFDPWGQGTLVTVSS VL: not shown	Fold Change (max MFI over secondary antibody alone) [4]: 5.2 fold
4360 RLU	8980 RLU	3680 RLU	10900 RLU	44400 RLU	180000 RLU	57100 RLU	165000 RLU	-0.9 RU	112 RU	0.13 nM	7.42e-05 s⁻¹	571000 M⁻¹ s⁻¹	2.59 h	99%	0.52 nM	0.73 nM	401 fold	620000 gMFI	0.00651 nM	mAb9364 (antibody, V domains shown, Bivalent parental antibody; also called parental bivalent anti-PD-L1 antibody; PD-L1 bivalent control antibody) VH: EVQLVESGGGLVQPGRSLRLSCAASGFTFDDYALHWVRQAPGKGLEWVSGISWTGGTIDYADSVKGRFTISRDNAKNSLYLQMSSLRTEDTAIYYCTRDIRGNWKYGGWFDPWGQGTLVTVSS VL: not shown	AP-1 luciferase MAX (RLU), WSU-DLCL2/hPD-L1 + Jurkat/AP1-Luc/hPD1 [8]: 1.04e+06 RLU; Fold Change (max MFI over secondary antibody alone) [4]: 4.7 fold
3870 RLU	25200 RLU	2690 RLU	144000 RLU	17200 RLU	444000 RLU	110000 RLU	2.32e+06 RLU	15.4 RU	34.9 RU	0.103 nM	6.18e-05 s⁻¹	600000 M⁻¹ s⁻¹	3.11 h	97%	1.2 nM	2.5 nM	876 fold	1.4e+06 gMFI	0.183 nM	REGN6192 (bispecific antibody, human IgG4 S228P, kappa, common light chain 1-39; also called PD-L1×CD28; anti-PD-L1 × anti-CD28 bispecific antibody) heavy 1: EVQLVESGGGLVQPGRSLRLSCAASGFTFDDYALHWVRQAPGKGLEWVSGISWTGGTIDYADSVKGRFTISRDNAKNSLYLQMSSLRTEDTAIYYCTRDIRGNWKYGGWFDPWGQGTLVTVSSASTKGPSVFPLAPCSRSTSESTAALGCLVKDYFPEPVTVSWNSGALTSGVHTFPAVLQSSGLYSLSSVVTVPSSSLGTKTYTCNVDHKPSNTKVDKRVESKYGPPCPPCPAPPVAGPSVFLFPPKPKDTLMISRTPEVTCVVVDVSQEDPEVQFNWYVDGVEVHNAKTKPREEQFNSTYRVVSVLTVLHQDWLNGKEYKCKVSNKGLPSSIEKTISKAKGQPREPQVYTLPPSQEEMTKNQVSLTCLVKGFYPSDIAVEWESNGQPENNYKTTPPVLDSDGSFFLYSRLTVDKSRWQEGNVFSCSVMHEALHNHYTQKSLSLSLGK heavy 2: EVQLVESGGGLVQPGGSLRLSCAASGFTFSTYAMTWVRQAPGKGLEWVSFISGSGDNTYYADSVKGRFTISRDNSKNTLYLQMNSLRADDSAIYHCAKDSGYCSSGGCSLYFYYGMDVWGQGTTVTVSSASTKGPSVFPLAPCSRSTSESTAALGCLVKDYFPEPVTVSWNSGALTSGVHTFPAVLQSSGLYSLSSVVTVPSSSLGTKTYTCNVDHKPSNTKVDKRVESKYGPPCPPCPAPPVAGPSVFLFPPKPKDTLMISRTPEVTCVVVDVSQEDPEVQFNWYVDGVEVHNAKTKPREEQFNSTYRVVSVLTVLHQDWLNGKEYKCKVSNKGLPSSIEKTISKAKGQPREPQVYTLPPSQEEMTKNQVSLTCLVKGFYPSDIAVEWESNGQPENNYKTTPPVLDSDGSFFLYSRLTVDKSRWQEGNVFSCSVMHEALHNRFTQKSLSLSPGK light: not shown	IL2 release EC50, CD4+ T cells + HEK293/hCD20/hPSMA + CD20×CD3 [1]: 16.4 nM; IL2 release EC50, CD4+ T cells + HEK293/hCD20/hPSMA/hPD-L1 + CD20×CD3 [1]: 0.104 nM; NFkB-luciferase EC50, Jurkat/NFkB-Luc + HEK293/hCD20/hPSMA/hPD-L1 + CD20×CD3 [2]: 0.243 nM; AP-1 luciferase MAX (RLU), WSU-DLCL2/hPD-L1 + Jurkat/AP1-Luc/hPD1 [8]: 1.19e+06 RLU; Fold Change (max MFI over secondary antibody alone) [9]: 24.1 fold; Max gMFI [9]: 10000 gMFI; Kd [3]: 13.2 nM; koff [3]: 0.000342 s⁻¹; kon [3]: 25900 M⁻¹ s⁻¹; t1/2 [3]: 0.563 h
4250 RLU	12600 RLU	2760 RLU	141000 RLU	14200 RLU	217000 RLU	19500 RLU	2.73e+06 RLU	21.6 RU	44.2 RU	0.116 nM	6.37e-05 s⁻¹	548000 M⁻¹ s⁻¹	3.02 h	98%	0.82 nM	1.3 nM	847 fold	1.3e+06 gMFI	0.202 nM	REGN6193 (bispecific antibody, human IgG4 S228P, kappa, common light chain 1-39; also called PD-L1×CD28; anti-PD-L1 × anti-CD28 bispecific antibody) heavy 1: EVQLVESGGGLVQPGRSLRLSCAASGFTFDDYALHWVRQAPGKGLEWVSGISWTGGTIDYADSVKGRFTISRDNAKNSLYLQMSSLRTEDTAIYYCTRDIRGNWKYGGWFDPWGQGTLVTVSSASTKGPSVFPLAPCSRSTSESTAALGCLVKDYFPEPVTVSWNSGALTSGVHTFPAVLQSSGLYSLSSVVTVPSSSLGTKTYTCNVDHKPSNTKVDKRVESKYGPPCPPCPAPPVAGPSVFLFPPKPKDTLMISRTPEVTCVVVDVSQEDPEVQFNWYVDGVEVHNAKTKPREEQFNSTYRVVSVLTVLHQDWLNGKEYKCKVSNKGLPSSIEKTISKAKGQPREPQVYTLPPSQEEMTKNQVSLTCLVKGFYPSDIAVEWESNGQPENNYKTTPPVLDSDGSFFLYSRLTVDKSRWQEGNVFSCSVMHEALHNHYTQKSLSLSLGK heavy 2: EVQLVESGGGLVQPGGSLRLSCAASGFTFSRNNMHWVRQAPGKGLEYVSGISSNGGRTYYADSVKGRFTISRDNSKNTLYLQMGGLRAADMAVYFCTRDDELLSFDYWGQGTLVTVSSASTKGPSVFPLAPCSRSTSESTAALGCLVKDYFPEPVTVSWNSGALTSGVHTFPAVLQSSGLYSLSSVVTVPSSSLGTKTYTCNVDHKPSNTKVDKRVESKYGPPCPPCPAPPVAGPSVFLFPPKPKDTLMISRTPEVTCVVVDVSQEDPEVQFNWYVDGVEVHNAKTKPREEQFNSTYRVVSVLTVLHQDWLNGKEYKCKVSNKGLPSSIEKTISKAKGQPREPQVYTLPPSQEEMTKNQVSLTCLVKGFYPSDIAVEWESNGQPENNYKTTPPVLDSDGSFFLYSRLTVDKSRWQEGNVFSCSVMHEALHNRFTQKSLSLSPGK light: not shown	IL2 release EC50, CD4+ T cells + HEK293/hCD20/hPSMA/hPD-L1 + CD20×CD3 [1]: 0.144 nM; NFkB-luciferase EC50, Jurkat/NFkB-Luc + HEK293/hCD20/hPSMA/hPD-L1 + CD20×CD3 [2]: 0.413 nM; AP-1 luciferase MAX (RLU), WSU-DLCL2/hPD-L1 + Jurkat/AP1-Luc/hPD1 [8]: 1.49e+06 RLU; Fold Change (max MFI over secondary antibody alone) [9]: 21.8 fold; Max gMFI [9]: 9200 gMFI; Kd [3]: 46.9 nM; koff [3]: 0.00168 s⁻¹; kon [3]: 35900 M⁻¹ s⁻¹; t1/2 [3]: 0.115 h
